Laboratory results as given in paper PMC10911177, “Exploring the ATG9A interactome uncovers interaction with VPS13A” (Journal of cell science, 2024).

Biological target: T1, 3×Flag−His6−ATG9A (purified) (UniProt Q7Z3C6 1-839)
T1 construct: ATG9A; also called Flag−ATG9A; 3×Flag−ATG9A
T1 sequence (looked up): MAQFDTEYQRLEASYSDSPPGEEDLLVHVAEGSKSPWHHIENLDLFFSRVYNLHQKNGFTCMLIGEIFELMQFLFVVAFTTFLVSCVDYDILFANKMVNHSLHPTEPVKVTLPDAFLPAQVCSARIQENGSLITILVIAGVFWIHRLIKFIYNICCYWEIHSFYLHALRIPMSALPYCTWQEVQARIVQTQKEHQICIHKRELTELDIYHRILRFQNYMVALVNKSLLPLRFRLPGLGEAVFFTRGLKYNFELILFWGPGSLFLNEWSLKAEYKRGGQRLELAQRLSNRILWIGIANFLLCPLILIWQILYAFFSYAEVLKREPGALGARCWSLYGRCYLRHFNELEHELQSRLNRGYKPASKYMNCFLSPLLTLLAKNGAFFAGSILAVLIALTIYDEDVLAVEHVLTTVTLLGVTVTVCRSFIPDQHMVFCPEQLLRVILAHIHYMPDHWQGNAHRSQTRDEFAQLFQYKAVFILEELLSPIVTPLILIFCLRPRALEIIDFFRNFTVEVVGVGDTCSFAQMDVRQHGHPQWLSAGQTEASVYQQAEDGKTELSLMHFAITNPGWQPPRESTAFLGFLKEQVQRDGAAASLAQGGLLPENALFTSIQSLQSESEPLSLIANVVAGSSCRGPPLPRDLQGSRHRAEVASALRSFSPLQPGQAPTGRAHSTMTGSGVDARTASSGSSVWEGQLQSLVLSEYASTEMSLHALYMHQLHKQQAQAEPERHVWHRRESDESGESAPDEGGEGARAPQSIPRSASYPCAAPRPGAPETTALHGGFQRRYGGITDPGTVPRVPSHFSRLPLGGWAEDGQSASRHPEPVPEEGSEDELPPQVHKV
Assay: co-IP; in vitro IP: 100 μg purified 3×Flag−GFP−VPS13A fragment 4 mixed with 10 μg purified ATG9A at 4°C in 0.002% LMNG:CHS (5:1), GFP-Trap beads, four washes with VPS13 buffer with detergent; immunoblot
Conditions: both partners purified

B1: 3×Flag−eGFP−VPS13A fragment 4 (purified) (domain or fragment, human, UniProt Q96RL7 2554-3174, looked up)
chain: VVWETKPKKKARWKPMSVKHTEKLEREFKEYTESSPSEDKVIQLDTNVPVRLTPTGHNMKILQPHVIALRRNYLPALKVEYNTSAHQSSFRIQIYRIQIQNQIHGAVFPFVFYPVKPPKSVTMDSAPKPFTDVSIVMRSAGHSQISRIKYFKVLIQEMDLRLDLGFIYALTDLMTEAEVTENTEVELFHKDIEAFKEEYKTASLVDQSQVSLYEYFHISPIKLHLSVSLSSGREEAKDSKQNGGLIPVHSLNLLLKSIGATLTDVQDVVFKLAFFELNYQFHTTSDLQSEVIRHYSKQAIKQMYVLILGLDVLGNPFGLIREFSEGVEAFFYEPYQGAIQGPEEFVEGMALGLKALVGGAVGGLAGAASKITGAMAKGVAAMTMDEDYQQKRREAMNKQPAGFREGITRGGKGLVSGFVSGITGIVTKPIKGAQKGGAAGFFKGVGKGLVGAVARPTGGIIDMASSTFQGIKRATETSEVESLRPPRFFNEDGVIRPYRLRDGTGNQMLQVMENGRFAKYKYFTHVMINKTDMLMITRRGVLFVTKGTFGQLTCEWQYSFDEFTKEPFIVHGRRLRIEAKERVKSVFHAREFGKIINFKTPEDARWILTKLQEAREPSPSL
notes: VPS13A, human, fragment 4, residues 2554-3174; Subcloned into pcDNA3.1(+); The methods partly write '3×Flag−eGFP−VPS13A' without 'fragment 4'; also called Flag−GFP−VPS13A4; 3×Flag-VPS13A fragment 4
  binding result: binds
